Experiments:
wild-type human GM-CSFRα = target: T1, wild-type human GM-CSFRα (human, UniProt P15509 23-400); assay: Western blot, whole cell extracts
T1 construct: whole, on cells; negative control, on 293F cells; also called GM-CSFRa
T1 sequence (looked up): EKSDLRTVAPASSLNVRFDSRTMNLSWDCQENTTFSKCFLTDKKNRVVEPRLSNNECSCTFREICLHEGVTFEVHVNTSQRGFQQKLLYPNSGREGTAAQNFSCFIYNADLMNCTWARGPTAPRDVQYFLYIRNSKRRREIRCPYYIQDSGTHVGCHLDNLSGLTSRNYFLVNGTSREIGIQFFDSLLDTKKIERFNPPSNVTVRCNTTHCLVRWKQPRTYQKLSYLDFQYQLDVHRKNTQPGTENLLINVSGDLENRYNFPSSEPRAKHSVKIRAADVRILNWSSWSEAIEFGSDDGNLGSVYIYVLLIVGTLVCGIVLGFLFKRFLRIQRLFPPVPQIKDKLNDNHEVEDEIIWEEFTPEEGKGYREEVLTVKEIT

[1] = target: T2, human IL-3Rα S59A/P88T double mutant, full length (human, UniProt P26951 19-378); assay: flow cytometry, MFI normalised to WT
T2 chain: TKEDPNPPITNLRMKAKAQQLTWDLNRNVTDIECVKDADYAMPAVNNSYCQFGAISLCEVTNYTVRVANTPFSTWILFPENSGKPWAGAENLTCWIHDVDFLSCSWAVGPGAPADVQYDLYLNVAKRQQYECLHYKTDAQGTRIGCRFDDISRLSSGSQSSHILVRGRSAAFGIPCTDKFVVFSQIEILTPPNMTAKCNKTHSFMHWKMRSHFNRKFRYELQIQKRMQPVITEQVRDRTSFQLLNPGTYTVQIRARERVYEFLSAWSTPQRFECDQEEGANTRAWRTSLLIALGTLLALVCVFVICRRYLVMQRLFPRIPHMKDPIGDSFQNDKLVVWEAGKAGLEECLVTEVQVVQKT
Protocol: (§1) Median fluorescence intensity (MFI) of each antibody was determined for WT IL-3Rα and for each IL-3Rα mutant. The MFI of WT IL-3Rα staining for each antibody was set as 100% then the MFI of each mutant was normalized to a percent of WT staining.

[2] = target: T3, human IL-3Rα E51Q/S59A double mutant, full length (human, UniProt P26951 19-378); assay: flow cytometry, MFI normalised to WT
T3 chain: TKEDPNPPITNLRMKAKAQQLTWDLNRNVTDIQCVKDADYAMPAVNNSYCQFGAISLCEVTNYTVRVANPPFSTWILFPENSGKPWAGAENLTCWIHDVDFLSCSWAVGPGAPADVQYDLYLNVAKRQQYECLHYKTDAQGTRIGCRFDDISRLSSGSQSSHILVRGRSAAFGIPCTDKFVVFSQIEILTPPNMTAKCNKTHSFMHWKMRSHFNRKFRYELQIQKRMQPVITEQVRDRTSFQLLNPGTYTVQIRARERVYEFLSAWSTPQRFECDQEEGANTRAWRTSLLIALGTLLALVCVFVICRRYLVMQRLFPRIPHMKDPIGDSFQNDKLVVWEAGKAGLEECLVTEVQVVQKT
Protocol: as §1

[3] = target: T4, human IL-3Rα E51Q/P88T double mutant, full length (human, UniProt P26951 19-378); assay: flow cytometry, MFI normalised to WT
T4 chain: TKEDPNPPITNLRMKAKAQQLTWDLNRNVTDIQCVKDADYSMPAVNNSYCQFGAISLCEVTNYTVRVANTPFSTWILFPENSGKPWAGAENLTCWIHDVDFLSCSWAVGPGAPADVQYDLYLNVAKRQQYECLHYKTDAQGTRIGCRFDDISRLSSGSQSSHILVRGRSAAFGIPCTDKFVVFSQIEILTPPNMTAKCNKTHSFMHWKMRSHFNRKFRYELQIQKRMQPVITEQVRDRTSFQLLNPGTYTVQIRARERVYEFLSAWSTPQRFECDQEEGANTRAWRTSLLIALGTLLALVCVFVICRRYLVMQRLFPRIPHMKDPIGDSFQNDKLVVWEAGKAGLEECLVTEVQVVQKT
Protocol: as §1

[4] = target: T5, human IL-3Rα E51Q/S59A/P88T triple mutant, full length (human, UniProt P26951 19-378); assay: flow cytometry, MFI normalised to WT
T5 chain: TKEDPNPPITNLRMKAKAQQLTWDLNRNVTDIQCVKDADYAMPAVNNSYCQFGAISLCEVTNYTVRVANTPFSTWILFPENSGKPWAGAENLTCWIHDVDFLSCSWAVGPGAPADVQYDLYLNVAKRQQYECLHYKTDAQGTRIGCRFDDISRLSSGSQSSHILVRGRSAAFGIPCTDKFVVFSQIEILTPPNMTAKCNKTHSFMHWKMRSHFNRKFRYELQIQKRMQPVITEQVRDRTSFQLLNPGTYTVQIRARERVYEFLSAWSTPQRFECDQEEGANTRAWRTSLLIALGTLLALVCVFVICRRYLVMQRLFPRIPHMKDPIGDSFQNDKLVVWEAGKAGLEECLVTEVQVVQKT
Protocol: as §1

[5] = target: T6, soluble human IL-3Rα 1-306-His F90A (human, UniProt P26951 19-307); assay: Western blot, supernatants of 293FS cells
T6 construct: supernatant of 293FS cells; also called F90, soluble alanine
T6 sequence: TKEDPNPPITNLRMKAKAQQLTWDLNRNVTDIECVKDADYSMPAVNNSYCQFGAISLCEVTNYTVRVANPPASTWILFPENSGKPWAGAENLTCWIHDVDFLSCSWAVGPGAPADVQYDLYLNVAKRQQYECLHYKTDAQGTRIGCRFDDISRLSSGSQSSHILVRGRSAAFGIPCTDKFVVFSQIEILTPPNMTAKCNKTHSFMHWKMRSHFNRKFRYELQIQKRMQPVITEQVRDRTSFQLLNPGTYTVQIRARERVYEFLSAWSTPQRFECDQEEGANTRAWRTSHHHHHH

[6] = target: T7, soluble human IL-3Rα 1-306-His P97A (human, UniProt P26951 19-307); assay: Western blot, supernatants of 293FS cells
T7 construct: supernatant of 293FS cells; also called P97, soluble alanine
T7 sequence: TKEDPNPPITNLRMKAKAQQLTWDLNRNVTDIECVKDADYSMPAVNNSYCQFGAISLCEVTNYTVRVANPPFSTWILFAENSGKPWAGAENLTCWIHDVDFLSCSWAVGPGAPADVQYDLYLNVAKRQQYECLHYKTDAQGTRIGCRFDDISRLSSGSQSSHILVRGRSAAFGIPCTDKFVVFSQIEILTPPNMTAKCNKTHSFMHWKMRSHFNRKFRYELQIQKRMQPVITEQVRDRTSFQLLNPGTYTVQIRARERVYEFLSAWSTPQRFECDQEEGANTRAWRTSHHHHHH

B1: monoclonal antibody 7G3 (antibody, V domains shown)
VH: EVQLQQSGPELVKPGASVKMSCKASGYTFTDYYMKWVKQSHGKSLEWIGDIIPSNGATFYNQKFKGKATLTVDRSSSTAYMHLNSLTSEDSAVYYCTRSHLLRASWFAYWGQGTLVTVSA
VL: DFVMTQSPSSLTVTAGEKVTMSCKSSQSLLNSGNQKNYLTWYLQKPGQPPKLLIYWASTRESGVPDRFTGSGSGTDFTLTISSVQAEDLAVYYCQNDYSYPYTFGGGTKLEIKR
notes: mouse monoclonal antibody (hybridoma ATCC HB-12009)
- binding result (wild-type human GM-CSFRα): no binding
- MFI as percent of WT staining [1]: 3 % of WT MFI
- MFI as percent of WT staining [2]: 1.4 % of WT MFI
- MFI as percent of WT staining [3]: 1.4 % of WT MFI
- MFI as percent of WT staining [4]: 1 % of WT MFI

B2: antibody CSL362 (antibody, V domains shown)
VH: EVQLVQSGAEVKKPGESLKISCKGSGYSFTDYYMKWARQMPGKGLEWMGDIIPSNGATFYNQKFKGQVTISADKSISTTYLQWSSLKASDTAMYYCARSHLLRASWFAYWGQGTMVTVSS
VL: DIVMTQSPDSLAVSLGERATINCESSQSLLNSGNQKNYLTWYQQKPGQPPKPLIYWASTRESGVPDRFSGSGSGTDFTLTISSLQAEDVAVYYCQNDYSYPYTFGQGTKLEIKR
- binding result [5]: no binding
- binding result [6]: no binding
- MFI as percent of WT staining [1]: 5 % of WT MFI
- MFI as percent of WT staining [2]: 2.4 % of WT MFI
- MFI as percent of WT staining [3]: 2.5 % of WT MFI
- MFI as percent of WT staining [4]: 2.9 % of WT MFI
